From PMC7089075

Experiments:
[1] = target: N (two-hybrid positive control, pAS2 N and pGADT7 N); experiment: two-hybrid
[2] = target: Salmo salar Mov10 (SsMov10) (Salmo salar); experiment: two-hybrid

Substance	liquid beta gal assay value [1]	fold β-galactosidase activity against the controls [2]
N (two-hybrid positive control, pAS2 N and pGADT7 N) (natural protein)	1.28	
infectious salmon anaemia virus (ISAV) segment 8 open reading frame 2 protein (s8ORF2) (natural protein)		5 fold
